Tested on: MS2 coat protein
Assay: apparent KD of MS2 coat protein; designed switch direction (-1 OFF switch, 1 ON switch): -1; higher = weaker reporter binding
How it was run: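 For each design, the apparent KD is the median over clusters of curves fitted to normalised cluster fluorescence. Clusters held RNA switches with common flanks, transcribed on Illumina chips by stalled E. coli RNA polymerase. These were titrated with SNAP-549-labelled MS2 coat protein, doubling from 0.7 or 1.5 nM to 3 µM, without input, with 200 uM small-molecule ligand, or with an oligonucleotide input.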

[1] = input ligand: microRNA oligo, concentration not stated
[2] = Eterna round: R95, input ligand: FMN 200 uM
[3] = Eterna round: R95, input ligand: microRNA oligo, concentration not stated
[4] = Eterna round: R95, input ligand: none

Row | Sequence | apparent KD of MS2 coat protein (input ligand: FMN 200 uM) | apparent KD of MS2 coat protein (input ligand: none) | apparent KD of MS2 coat protein [1] | apparent KD of MS2 coat protein [2] | apparent KD of MS2 coat protein [3] | apparent KD of MS2 coat protein [4]
1 | GCACUGGCAGGAUAUACAUGAGGAUCACCCAUGUGAUCCCUUAAGUACAAAAGUACUAGUAGAAGGGCCUGUGC [Omei Ex3 Model Bachelor's Dilema v46] (Eterna round: R97, puzzle: Exclusion 3) | 307 nM | 785 nM |  |  |  | 
2 | GCAGAUGUAGUGAGGAUAUGCUCUACCUCGGUAGAGCAGAAGGCACAUGAGGAUCACCCAUGUGAUUCAUCUGC [Omei Ex4B B7] (Eterna round: R97, puzzle: Brourd's mod of Exclusion 4) | 211 nM | 28.6 nM |  |  |  | 
3 | GCAGCAAACUCUAUUAAAACCACAUGAGGAUCACCCAUGUCUCAGGAUAUGGUCUGGAUUACAGGCCAGAAGGGAGAAAGCUGC [Eli exng3 - 054] (Eterna round: R96, puzzle: Exclusion NG 3) | 15 nM | 15.1 nM | 10.9 nM |  |  | 
4 | GCAGCAUAGUAUACUUACUGUUACAUGAGGAUCACCCAUGUACAGGAUAUGGUCUGGAUUACAGGCCAGAAGGGUACAAGCUGC [Eli exng3 - 024] (Eterna round: R96, puzzle: Exclusion NG 3) | 10.3 nM | 11.7 nM | 8.12 nM |  |  | 
5 | GCAGCAUAGUCGGAAACGACAGAACAUGAGGAUCACCCAUGUUAGGAUAUGGUCUGGAUUACAGGCCAGAAGGGACAAAGCUGC [Eli exng3 - 009] (Eterna round: R96, puzzle: Exclusion NG 3) | 34.8 nM | 39.9 nM | 29.7 nM |  |  | 
6 | GCAGCUGCUCUAGGAUAUAUUUUAGCACAUGAGGAUCACCCAUGUGGGACCACAACAGCGCAAGAAUAGAAGGAGACAGCAGUA [Eternabot solution 32] (Eterna round: R96, puzzle: Exclusion NG 2) | 506 nM | 129 nM | 125 nM |  |  | 
7 | GCAUCCAAAGUGAGGAUAUACCUCUGGAUACAGAGGUAGAAGGCACAUGAGGAUCACCCAUGUUUCUAGGAUGC [Fiskers BMX 4 - 37] (puzzle: Brourd's mod of Exclusion 4) |  |  |  | 21.2 nM | 13.3 nM | 13.9 nM
8 | GCAUCGGCAGGAUAUACGCCGUAUGACAUGAGGAUCACCCAUGUUCCCGAGUCACAGAAAGUAGAAGGGCUGGAUA [Eternabot (L2) Solution 70] (Eterna round: R97, puzzle: Exclusion 5) | 236 nM | 182 nM |  |  |  | 
9 | GCAUUUUGGUCGUCUUAUAACAUGAGGAUCACCCAUGUGUUGAGCCCAACUUAUUGUACUCAUGCUAUGGCCUGAUG [Eternabot (L2) Solution 27] (Eterna round: R97, puzzle: Sensor, turn-off variant 1) | 81.2 nM | 84.2 nM |  |  |  | 
10 | GCCAGAGCAGGAUAUUCAUUAUAUCACAUGAGGAUCACCCAUGUCCAGCGAAAGCUGGAGGGAGAAGGGCUCUGGC [Fiskers Ex 5 - 24] (puzzle: Exclusion 5) |  |  |  | 102 nM | 225 nM | 140 nM
11 | GCCAGAGGAGGAUAUCUAAUAUAUCACAUGAGGAUCACCCAUGUCCAGCGAAAGCUGGAGGGAGAAGGCCUCUGGC [Fiskers Ex 5 - 23] (Eterna round: R96, puzzle: Exclusion 5) | 74.8 nM | 252 nM | 172 nM |  |  | 
